Source: US20210214434A1 (LABORATOIRE FRAN AIS DU FRACTIONNEMENT ET DES …, published 2021)

T1: CD32b (UniProt P31994 43-310, limits assumed)
T1 construct: probably on transfected cells as for CD32a
T1 sequence (looked up): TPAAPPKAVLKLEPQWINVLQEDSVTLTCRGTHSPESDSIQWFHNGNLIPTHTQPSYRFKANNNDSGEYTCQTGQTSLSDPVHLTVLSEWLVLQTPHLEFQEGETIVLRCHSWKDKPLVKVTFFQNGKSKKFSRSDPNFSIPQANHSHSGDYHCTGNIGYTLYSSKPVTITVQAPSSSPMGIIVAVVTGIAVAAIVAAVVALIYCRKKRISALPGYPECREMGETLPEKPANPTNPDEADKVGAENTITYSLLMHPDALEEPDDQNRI

T2: human CD32aH receptor on transfected HEK cells (HEK-CD32) (human, UniProt P12318 34-317)
T2 construct: whole, on cells; also called hCD32aH; FcγRIIa (CD32a)
T2 sequence (looked up): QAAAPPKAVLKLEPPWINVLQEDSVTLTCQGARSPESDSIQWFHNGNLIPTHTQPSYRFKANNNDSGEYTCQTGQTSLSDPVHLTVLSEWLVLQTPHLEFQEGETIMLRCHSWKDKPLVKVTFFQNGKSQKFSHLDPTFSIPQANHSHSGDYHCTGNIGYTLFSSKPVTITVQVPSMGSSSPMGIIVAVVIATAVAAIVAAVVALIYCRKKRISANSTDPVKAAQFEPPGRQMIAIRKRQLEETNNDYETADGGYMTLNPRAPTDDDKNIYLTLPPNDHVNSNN

T3: human CD32aR receptor on transfected HEK cells (HEK-CD32) (human, UniProt P12318 34-317)
T3 construct: whole, on cells; also called hCD32aR; FcγRIIa (CD32a)
T3 sequence (looked up): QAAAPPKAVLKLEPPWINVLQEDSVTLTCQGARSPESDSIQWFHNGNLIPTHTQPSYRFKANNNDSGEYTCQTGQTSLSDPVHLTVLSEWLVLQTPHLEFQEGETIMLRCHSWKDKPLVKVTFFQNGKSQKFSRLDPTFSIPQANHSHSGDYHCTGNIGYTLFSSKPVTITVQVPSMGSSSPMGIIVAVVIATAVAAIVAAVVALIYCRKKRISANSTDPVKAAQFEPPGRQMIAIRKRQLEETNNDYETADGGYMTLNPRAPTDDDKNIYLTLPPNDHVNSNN

T4: HisTag hCD32aH receptor (PX therapeutics) (human, UniProt P12318 34-217, limits assumed)
T4 construct: Captured on anti-Penta-HIS biosensors; also called FcγRIIa (CD32a); not shown: HisTag
T4 sequence (looked up): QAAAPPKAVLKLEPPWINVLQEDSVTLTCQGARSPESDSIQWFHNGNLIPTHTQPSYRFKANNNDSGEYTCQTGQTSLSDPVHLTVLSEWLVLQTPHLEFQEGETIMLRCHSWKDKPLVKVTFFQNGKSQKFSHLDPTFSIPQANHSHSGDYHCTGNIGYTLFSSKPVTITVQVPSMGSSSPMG


How the values were obtained:
[1] = target: T5, human CD64 receptor expressed by Jurkat cells (Jurkat-CD64) (human, UniProt P12314 16-374); assay: flow cytometry competition on Jurkat-CD64 cells, displacement of Rituxan-A488 (25 µg/ml)
T5 construct: whole, on cells; also called hCD64; FcγRI (CD64)
T5 sequence (P12314 16-374): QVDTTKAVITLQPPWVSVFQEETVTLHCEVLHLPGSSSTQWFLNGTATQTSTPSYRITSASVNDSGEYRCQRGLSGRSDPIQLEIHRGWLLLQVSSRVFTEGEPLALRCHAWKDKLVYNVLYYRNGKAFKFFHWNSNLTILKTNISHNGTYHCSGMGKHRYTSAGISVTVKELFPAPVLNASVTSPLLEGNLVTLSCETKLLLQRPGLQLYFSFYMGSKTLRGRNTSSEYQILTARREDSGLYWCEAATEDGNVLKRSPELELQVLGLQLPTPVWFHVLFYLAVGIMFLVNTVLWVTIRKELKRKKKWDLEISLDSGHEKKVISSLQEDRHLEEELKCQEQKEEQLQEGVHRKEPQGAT

CD32b = target: T1, CD32b; assay: competition assay, protocol and competitor for CD32b not described
[2] = target: T6, human FcRn receptor expressed by Jurkat cells (Jurkat-FcRn) (human, UniProt P55899 24-365; P61769 21-119); assay: flow cytometry competition on Jurkat-FcRn cells, displacement of Rituxan-A488 (25 µg/ml), pH 6
T6 construct: whole, on cells; also called hFcRn
T6 sequence (P55899 24-365, chain 1 of 2): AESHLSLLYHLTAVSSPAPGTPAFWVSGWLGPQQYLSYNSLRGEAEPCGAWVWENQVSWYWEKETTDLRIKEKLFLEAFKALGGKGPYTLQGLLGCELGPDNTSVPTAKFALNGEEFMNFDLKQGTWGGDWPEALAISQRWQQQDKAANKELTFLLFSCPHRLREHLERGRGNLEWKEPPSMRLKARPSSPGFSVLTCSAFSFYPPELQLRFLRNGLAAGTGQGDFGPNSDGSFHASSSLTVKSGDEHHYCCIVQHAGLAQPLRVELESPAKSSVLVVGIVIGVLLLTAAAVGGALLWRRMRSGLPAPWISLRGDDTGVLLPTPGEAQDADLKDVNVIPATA
T6 sequence (P61769 21-119, chain 2 of 2): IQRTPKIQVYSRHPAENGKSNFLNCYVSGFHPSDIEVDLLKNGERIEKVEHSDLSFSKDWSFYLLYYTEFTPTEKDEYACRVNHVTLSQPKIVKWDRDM
Experimental: The Jurkat-FcRn cells are seeded in a 96-well plate (V bottom) at a concentration of 2.10⁵ cells per well.
(§1) The cells are then washed by adding 100 μl of PBS at pH 6 and centrifuged at 1700 rpm for 3 minutes at 4° C. The supernatant is then removed and 300 μl of cold PBS is added at pH 6.

[3] = target: T7, HisTag hCD16aV receptor (R&D System) (human, UniProt P08637 17-208); assay: BLI (Octet), HisTag hCD16aV on anti-Penta-HIS biosensors, 1/1 model; SD 18.1
T7 construct: Captured on anti-Penta-HIS biosensors; also called human FcγRIIIa-V; FcγRIIIa (CD16a); not shown: HisTag
T7 sequence (P08637 17-208 F176V limits assumed): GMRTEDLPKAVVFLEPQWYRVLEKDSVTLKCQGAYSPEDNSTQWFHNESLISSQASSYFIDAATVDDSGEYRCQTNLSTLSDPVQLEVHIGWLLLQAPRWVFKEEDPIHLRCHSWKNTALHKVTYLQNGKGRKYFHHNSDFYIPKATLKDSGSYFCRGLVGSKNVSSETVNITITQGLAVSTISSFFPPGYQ
Experimental: (§2) The molecules were tested at concentrations of 1000, 500, 250, 125, 62.5, 31, […] and 0 nM in kinetic buffer.
(§3) The association and dissociation curves (first 5 s) are used to calculate the kinetic constants of association (kon) and dissociation (koff) using a 1/1 association model. KD (nM) is then calculated […].

[4] = target: T2, human CD32aH receptor on transfected …; assay: flow cytometry competition on HEK-CD32 cells, displacement of Rituxan-A488 (30 µg/ml)
Experimental: as §1

[5] = target: T3, human CD32aR receptor on transfected …; assay: as above
Experimental: as §1

[6] = target: T8, human CD16aH receptor on transfected Jurkat cells (Jurkat-CD16aH) (human, UniProt P08637 17-254); assay: flow cytometry competition on Jurkat-CD16aH cells, displacement of mAb 3G8-PE (0.5 µg/ml)
T8 construct: whole, on cells; also called hCD16aH; CD16a-F
T8 sequence (P08637 17-254): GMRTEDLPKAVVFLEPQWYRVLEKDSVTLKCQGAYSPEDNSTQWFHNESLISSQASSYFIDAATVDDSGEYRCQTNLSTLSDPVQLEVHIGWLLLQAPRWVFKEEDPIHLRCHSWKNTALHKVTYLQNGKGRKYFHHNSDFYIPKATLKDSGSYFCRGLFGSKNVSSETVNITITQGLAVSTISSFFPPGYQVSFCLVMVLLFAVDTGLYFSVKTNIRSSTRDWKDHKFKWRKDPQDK
Experimental: The Jurkat-CD16aH cells are seeded in a 96-well plate (V bottom) at a concentration of 2.10⁵ cells per well.
The cells are then washed by adding […] of PBS at pH 6 and centrifuged at 1700 rpm for 3 minutes at 4° C. The supernatant is then removed and 300 μl of cold PBS is added at pH 6.

[7] = target: T5, human CD64 receptor expressed by Jurkat …; assay: cell-based or functional assay
[8] = target: T7, HisTag hCD16aV receptor (R&D System); assay: BLI (Octet), HisTag hCD16aV on anti-Penta-HIS biosensors, 1/1 model; SD 7.7
Experimental: as §2, §3

[9] = target: T7, HisTag hCD16aV receptor (R&D System); assay: BLI (Octet), HisTag hCD16aV on anti-Penta-HIS biosensors, 1/1 model; SD 10.7
Experimental: as §2, §3

[10] = target: T7, HisTag hCD16aV receptor (R&D System); assay: BLI (Octet), HisTag hCD16aV on anti-Penta-HIS biosensors, 1/1 model; SD 14.1
[11] = target: complement proteins, in particular C1q (complement of the young rabbit serum used in the CDC test) (rabbit); assay: cell-based or functional assay
[12] = target: biotinylated human FcRn receptor (hFcRn), immobilized on Streptavidin Biosensors (human, UniProt P55899 24-297; P61769 21-119, limits assumed, biotinylated (site not stated)); assay: BLI (Octet), biotinylated hFcRn on streptavidin biosensors, pH 6, 1/1 model; SD 0
biotinylated human FcRn receptor (hFcRn), immobilized on Streptavidin Biosensors, sequence (P55899 24-297 limits assumed, chain 1 of 2): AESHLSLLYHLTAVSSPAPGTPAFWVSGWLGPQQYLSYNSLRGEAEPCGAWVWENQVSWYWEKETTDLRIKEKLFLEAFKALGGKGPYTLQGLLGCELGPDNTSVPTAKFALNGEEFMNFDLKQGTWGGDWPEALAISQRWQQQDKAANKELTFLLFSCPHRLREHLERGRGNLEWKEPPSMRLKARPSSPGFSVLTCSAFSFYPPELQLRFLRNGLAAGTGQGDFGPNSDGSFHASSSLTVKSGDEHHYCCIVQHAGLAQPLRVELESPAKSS
biotinylated human FcRn receptor (hFcRn), immobilized on Streptavidin Biosensors, sequence (P61769 21-119 limits assumed, chain 2 of 2): as the sequence (P61769 21-119, chain 2 of 2) above
Experimental: The association and dissociation curves (first 10 s) are used to calculate the kinetic constants of association (kon) and dissociation (koff) using a 1/1 association model. KD (nM) is then calculated […].

[13] = target: T4, HisTag hCD32aH receptor (PX …); assay: BLI (Octet), HisTag hCD32aH on anti-Penta-HIS biosensors, 1/1 model; SD 29.7

Binder	IC50 [1]	IC50 (CD32b)	IC50 [2]	Kd [3]	IC50 [4]	IC50 [5]	IC50 [6]	Inhibition of the secretion of IL-2 of the Jurkat cells transfected with CD64 (IC 25%, nM) [7]	Inhibition of the secretion of IL-2 of the Jurkat cells transfected with CD64 (IC 50%, nM) [7]	Kd [8]	Kd [9]	Kd [10]	IC50 (read off the curve) [11]	Kd [12]	Kd [13]
A3A-184AY_CHO (K334N/P352S/A378V/V397M/N434Y), Fc variant produced in CHO cells (other, also called Fc A3A-184AY CHO) DKTHTCPPCPAPELLGGPSVFLFPPKPKDTLMISRTPEVTCVVVDVSHEDPEVKFNWYVDGVEVHNAKTKPREEQYNSTYRVVSVLTVLHQDWLNGKEYKCKVSNKALPAPIENTISKAKGQPREPQVYTLSPSRDELTKNQVSLTCLVKGFYPSDIVVEWESNGQPENNYKTTPPMLDSDGSFFLYSKLTVDKSRWQQGNVFSCSVMHEALHYHYTQKSLSLSPGK	84 nM	57 nM	13 nM	80.3 nM	135 nM	176 nM	262 nM	448 nM	600 nM	–	–	–	–	–	–
A3A-184EY_CHO (Y296W/K334N/P352S/A378V/V397M/N434Y), Fc variant produced in CHO cells (other, probably a misprint; also called Fc A3A-184EY CHO) DKTHTCPPCPAPELLGGPSVFLFPPKPKDTLMISRTPEVTCVVVDVSHEDPEVKFNWYVDGVEVHNAKTKPREEQWNSTYRVVSVLTVLHQDWLNGKEYKCKVSNKALPAPIENTISKAKGQPREPQVYTLSPSRDELTKNQVSLTCLVKGFYPSDIVVEWESNGQPENNYKTTPPMLDSDGSFFLYSKLTVDKSRWQQGNVFSCSVMHEALHYHYTQKSLSLSPGK	70 nM	55 nM	15 nM	–	147 nM	132 nM	–	442 nM	600 nM	59.3 nM	–	–	–	–	–
Fc MST-HN fragment containing the mutations M252Y/S254T/T256E/H433K/N434F, produced in HEK-293 cells (other, UniProt P01857-1 104-330, looked up, name in EU numbering) DKTHTCPPCPAPELLGGPSVFLFPPKPKDTLYITREPEVTCVVVDVSHEDPEVKFNWYVDGVEVHNAKTKPREEQYNSTYRVVSVLTVLHQDWLNGKEYKCKVSNKALPAPIEKTISKAKGQPREPQVYTLPPSRDELTKNQVSLTCLVKGFYPSDIAVEWESNGQPENNYKTTPPVLDSDGSFFLYSKLTVDKSRWQQGNVFSCSVMHEALKFHYTQKSLSLSPGK	494 nM	–	14 nM	–	–	–	–	1460 nM	< 1950 nM	–	–	–	–	–	–
A3A-184AY_TGg, Fc variant A3A-184AY produced in the transgenic goat (other) DKTHTCPPCPAPELLGGPSVFLFPPKPKDTLMISRTPEVTCVVVDVSHEDPEVKFNWYVDGVEVHNAKTKPREEQYNSTYRVVSVLTVLHQDWLNGKEYKCKVSNKALPAPIENTISKAKGQPREPQVYTLSPSRDELTKNQVSLTCLVKGFYPSDIVVEWESNGQPENNYKTTPPMLDSDGSFFLYSKLTVDKSRWQQGNVFSCSVMHEALHYHYTQKSLSLSPGK	87 nM	59 nM	12 nM	–	170 nM	–	–	–	–	–	51.2 nM	–	–	–	–
Fc variant A3A-184AY (HEK) (K334N/P352S/A378V/V397M/N434Y), produced in HEK293 cells (other, also called Fc A3A 184AY (HEK); rFc A3A-184AY) DKTHTCPPCPAPELLGGPSVFLFPPKPKDTLMISRTPEVTCVVVDVSHEDPEVKFNWYVDGVEVHNAKTKPREEQYNSTYRVVSVLTVLHQDWLNGKEYKCKVSNKALPAPIENTISKAKGQPREPQVYTLSPSRDELTKNQVSLTCLVKGFYPSDIVVEWESNGQPENNYKTTPPMLDSDGSFFLYSKLTVDKSRWQQGNVFSCSVMHEALHYHYTQKSLSLSPGK	–	–	–	–	–	–	–	–	–	–	–	132 nM	~200 nM	7.8 nM	313 nM
